# Results: the RNAGym collection of RNA variant scans (doi:10.7554/elife.80360)
# B1: Hammerhead Ribozyme (parent)
# chain: ACCGGAUGUGCUUUCCGGUCUGAUGAGUCCGUGAGGACGAAACAG
# Variants of: B1
# Experiment: self-cleavage, relative activity (ratio to wild type); higher = more cleavage; co-transcriptional
row,Variant,self-cleavage
1,U12C C16G,0.652
2,U12C C16A,0.908
3,U12C C16U,0.878
4,U12G A37G,1.02
5,U12G A37C,0.88
6,U12G A37U,0.438
7,U13A A42C,0.314
8,U13A A42U,0.339
9,U13A A42G,0.344
10,U12G G22A,0.338
11,U12G G22U,0.37
12,U12G G22C,0.326
13,U12C U32G,0.502
14,U12C U32A,1.26
15,U12C U32C,1.05
16,U13A C30G,0.947
17,U13A C30A,1.31
18,U13A C30U,1.46
19,U12G C20U,0.667
20,U12G C20G,0.32
21,U12G C20A,0.332
22,U12C G36A,0.55
23,U12C G36C,0.713
24,U12C G36U,0.498

row,Variant,self-cleavage
1,U13C A40G,0.465
2,U13C A40U,0.277
3,U13C A40C,0.725
4,U12G C29U,0.541
5,U12G C29A,0.643
6,U12G C29G,0.736
7,U12C G45A,0.777
8,U12C G45U,0.564
9,U12C G45C,0.73
10,U12C G31A,0.871
11,U12C G31C,0.913
12,U12C G31U,1
13,U12G G33U,1.2
14,U12G G33A,1.02
15,U12G G33C,0.972
16,U13A,1.31
17,U13C,1.12
18,U13A U21A,0.707
19,U13A U21G,0.602
20,U13A U21C,0.908
21,U13A G33A,1.29
22,U13A G33C,1.25
23,U13A G33U,1.46
24,U12G A34C,0.841

row,Variant,self-cleavage
1,U12G A34G,0.909
2,U12G A34U,0.897
3,U12C G18C,0.5
4,U12C G18A,0.627
5,U12C G18U,0.626
6,U13A U28C,1.58
7,U13A U28A,1.1
8,U13A U28G,1.4
9,U12G U32A,0.696
10,U12G U32C,0.921
11,U12G U32G,0.813
12,U13A U24C,1.07
13,U13A U24A,1.09
14,U13A U24G,1.99
15,U12G U14G,0.961
16,U12G U14A,0.832
17,U12G U14C,0.677
18,U13A C20A,0.446
19,U13A C20U,0.681
20,U13A C20G,0.354
21,U12G A23U,0.317
22,U12G A23C,0.459
23,U12G A23G,0.407
24,U12C A42C,0.32

row,Variant,self-cleavage
1,U12C A42U,0.364
2,U12C A42G,0.255
3,U12C C15G,0.474
4,U12C C15U,0.974
5,U12C C15A,0.565
6,U13C C16G,0.666
7,U13C C16U,0.976
8,U13C C16A,1.05
9,U12C A44G,1.6
10,U12C A44U,0.725
11,U12C A44C,0.611
12,U12C C29A,0.589
13,U12C C29G,0.599
14,U12C C29U,0.912
15,U13A G17C,0.815
16,U13A G17A,1.16
17,U13A G17U,1.02
18,U12C U19A,0.388
19,U12C U19C,0.577
20,U12C U19G,0.371
21,U12G C15U,0.823
22,U12G C15G,0.819
23,U12G C15A,1.09
24,U13A U14G,1.16

row,Variant,self-cleavage
1,U13A U14A,1.15
2,U13A U14C,0.548
3,U12C U24C,1.01
4,U12C U24G,1.13
5,U12C U24A,1.04
6,U13A A40G,0.287
7,U13A A40U,0.379
8,U13A A40C,0.711
9,U12G G39A,0.4
10,U12G G39U,0.319
11,U12G G39C,0.424
12,U12C U21A,0.471
13,U12C U21G,0.609
14,U12C U21C,0.792
15,U12C G17A,0.79
16,U12C G17C,0.446
17,U12C G17U,0.612
18,U12G U19G,0.509
19,U12G U19A,0.299
20,U12G U19C,0.524
21,U12C A37G,0.915
22,U12C A37U,0.727
23,U12C A37C,0.573
24,U13C A42U,0.327

row,Variant,self-cleavage
1,U13C A42G,0.232
2,U13C A42C,0.313
3,U13A G36A,0.732
4,U13A G36U,0.713
5,U13A G36C,1.03
6,U12G G35C,0.444
7,U12G G35A,0.674
8,U12G G35U,0.583
9,U13A A34G,1.04
10,U13A A34C,1.5
11,U13A A34U,1.46
12,U13A G27C,0.823
13,U13A G27A,0.873
14,U13A G27U,0.53
15,U13A C43U,0.614
16,U13A C43G,0.335
17,U13A C43A,0.254
18,U13A A37G,1.15
19,U13A A37U,0.908
20,U13A A37C,1.21
21,U13A C15G,0.895
22,U13A C15U,0.907
23,U13A C15A,0.926
24,U13C C29U,0.819

row,Variant,self-cleavage
1,U13C C29A,0.789
2,U13C C29G,0.723
3,U12C U28A,0.487
4,U12C U28G,0.543
5,U12C U28C,1.35
6,U12C A41C,0.299
7,U12C A41G,0.358
8,U12C A41U,0.288
9,U13A A41C,0.368
10,U13A A41U,0.355
11,U13A A41G,0.311
12,U12C C38U,0.832
13,U12C C38A,0.678
14,U12C C38G,0.663
15,U13A U32C,1.24
16,U13A U32A,1.31
17,U13A U32G,1.3
18,U13C C20G,0.293
19,U13C C20U,0.405
20,U13C C20A,0.573
21,U13C A44U,0.923
22,U13C A44C,0.491
23,U13C A44G,1.49
24,U13C A26G,0.313

row,Variant,self-cleavage
1,U13C A26C,0.782
2,U13C A26U,0.622
3,U12G A26G,0.346
4,U12G A26U,0.708
5,U12G A26C,0.475
6,U12G G45A,0.719
7,U12G G45U,0.716
8,U12G G45C,0.676
9,U13A G39C,0.341
10,U13A G39U,0.339
11,U13A G39A,0.317
12,U12G U24A,1.13
13,U12G U24G,0.795
14,U12G U24C,1.18
15,U12C G27C,0.669
16,U12C G27U,0.581
17,U12C G27A,0.605
18,U13A A23U,0.361
19,U13A A23G,0.441
20,U13A A23C,0.503
21,U13A G45U,1.02
22,U13A G45C,0.808
23,U13A G45A,0.883
24,U12C G25C,0.354

row,Variant,self-cleavage
1,U12C G25A,0.352
2,U12C G25U,0.277
3,U13C A23G,0.419
4,U13C A23C,0.373
5,U13C A23U,0.237
6,U12G C30A,0.795
7,U12G C30G,0.706
8,U12G C30U,0.983
9,U13A C38U,1.5
10,U13A C38G,0.728
11,U13A C38A,0.808
12,U12G U13A,1.25
13,U12G U13G,0.848
14,U12G U13C,0.879
15,U12G A41C,0.276
16,U12G A41G,0.339
17,U12G A41U,0.298
18,U12G G36A,0.518
19,U12G G36C,0.679
20,U12G G36U,0.471
21,U13C C43G,0.278
22,U13C C43A,0.35
23,U12C U13G,0.964
24,U12C U13A,1.36

row,Variant,self-cleavage
1,U12C U13C,1.13
2,U12C G22A,0.36
3,U12C G22C,0.337
4,U12C G22U,0.36
5,U13C A34C,1.02
6,U13C A34U,1.12
7,U13C A34G,0.776
8,U13C C15G,0.728
9,U13C C15A,0.834
10,U13C C15U,1.03
11,U13A C29G,0.922
12,U13A C29U,0.941
13,U13A C29A,0.759
14,U13A A44C,0.619
15,U13A A44U,0.749
16,U13A A44G,1.8
17,U12G C16U,0.968
18,U12G C16A,1.18
19,U12G C16G,0.714
20,U12G G31C,1.09
21,U12G G31A,1.2
22,U12G G31U,1.11
23,U12G A42U,0.321
24,U12G A42C,0.239

row,Variant,self-cleavage
1,U12G A42G,0.356
2,U13C C38A,0.601
3,U13C C38G,0.458
4,U13C C38U,1.11
5,U13A G22U,0.381
6,U13A G22A,0.298
7,U13A G22C,0.312
8,U12G C38G,0.813
9,U12G C38A,0.711
10,U12G C38U,1.08
11,U13C A41G,0.394
12,U13C A41C,0.247
13,U13C A41U,0.362
14,U12G G25A,0.316
15,U12G G25C,0.337
16,U12G G25U,0.315
17,U12C G39U,0.317
18,U12C G39A,0.403
19,U12C G39C,0.327
20,U12C C43G,0.305
21,U12C C43U,0.486
22,U12C C43A,0.278
23,U12G C43U,0.43
24,U12G C43G,0.181

row,Variant,self-cleavage
1,U12G C43A,0.362
2,U13A C16G,1.27
3,U13A C16U,1.02
4,U13A C16A,1.49
5,U12G A40G,0.326
6,U12G A40U,0.376
7,U12G A40C,0.366
8,U13A G18A,1.17
9,U13A G18C,0.777
10,U13A G18U,1.23
11,U13C A37C,1.07
12,U13C A37G,1.26
13,U13C A37U,0.482
14,U12G G17C,0.436
15,U12G G17U,0.943
16,U12G G17A,0.738
17,U12C U14G,0.902
18,U12C U14A,0.832
19,U12C U14C,0.83
20,U12C C20G,0.324
21,U12C C20U,0.395
22,U12C C20A,0.449
23,U13A G31C,1.39
24,U13A G31U,1.39

row,Variant,self-cleavage
1,U13A G31A,1.46
2,U12C A40U,0.379
3,U12C A40G,0.329
4,U12C A40C,0.531
5,U12G,0.976
6,U12C G35C,0.617
7,U12C G35A,0.737
8,U12C G35U,0.834
9,U13A G25C,0.327
10,U13A G25A,0.326
11,U13A G25U,0.277
12,U13A G35C,0.799
13,U13A G35U,0.727
14,U13A G35A,0.89
15,U12G G27A,0.914
16,U12G G27U,0.411
17,U12G G27C,0.433
18,U12G A44G,1.57
19,U12G A44C,0.499
20,U12G A44U,0.565
21,U12C C30U,0.683
22,U12C C30A,0.955
23,U12C C30G,0.84
24,U13A U19C,0.898

row,Variant,self-cleavage
1,U13A U19G,0.425
2,U13A U19A,0.36
3,U12C G33C,0.817
4,U12C G33A,1.25
5,U12C G33U,1.37
6,U12G G18C,0.61
7,U12G G18A,0.583
8,U12G G18U,0.998
9,U12G U21G,0.334
10,U12G U21A,0.455
11,U12G U21C,0.807
12,U13C C30A,1.54
13,U13C C30U,1.24
14,U13C C30G,0.956
15,U12C A34U,0.668
16,U12C A34G,1.09
17,U12G U28A,0.666
18,U12G U28C,1.02
19,U12G U28G,0.685
20,U13A A26U,0.976
21,U13A A26C,0.564
22,U13A A26G,0.327
